T1: tobacco nicotine demethylase (D121-AA8) (Nicotiana tabacum, UniProt Q38Q87)
T1 sequence (Q38Q87 with tags, fused parts or gaps): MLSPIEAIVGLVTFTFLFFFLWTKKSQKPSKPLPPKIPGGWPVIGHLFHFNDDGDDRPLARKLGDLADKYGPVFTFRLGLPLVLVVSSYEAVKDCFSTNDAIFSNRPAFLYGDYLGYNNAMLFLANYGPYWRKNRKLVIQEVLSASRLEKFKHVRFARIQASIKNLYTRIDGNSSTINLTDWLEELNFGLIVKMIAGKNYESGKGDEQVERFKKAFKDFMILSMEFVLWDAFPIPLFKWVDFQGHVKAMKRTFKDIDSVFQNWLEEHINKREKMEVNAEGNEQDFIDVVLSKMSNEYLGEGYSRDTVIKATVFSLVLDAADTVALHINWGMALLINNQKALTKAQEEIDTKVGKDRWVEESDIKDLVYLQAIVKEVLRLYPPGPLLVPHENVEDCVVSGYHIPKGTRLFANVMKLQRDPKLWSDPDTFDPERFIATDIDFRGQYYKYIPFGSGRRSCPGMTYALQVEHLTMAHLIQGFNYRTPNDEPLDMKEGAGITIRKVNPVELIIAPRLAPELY

T2: nicotine demethylase activity in the transformed yeast cells (Nicotiana tabacum, UniProt Q38Q87)
T2 construct: expressed in transfected cells; host or cells: Saccharomyces cerevisiae WAT11 transformed with pYeDP60-p450 cDNA plasmid, galactose-induced culture
T2 sequence (Q38Q87 with tags, fused parts or gaps): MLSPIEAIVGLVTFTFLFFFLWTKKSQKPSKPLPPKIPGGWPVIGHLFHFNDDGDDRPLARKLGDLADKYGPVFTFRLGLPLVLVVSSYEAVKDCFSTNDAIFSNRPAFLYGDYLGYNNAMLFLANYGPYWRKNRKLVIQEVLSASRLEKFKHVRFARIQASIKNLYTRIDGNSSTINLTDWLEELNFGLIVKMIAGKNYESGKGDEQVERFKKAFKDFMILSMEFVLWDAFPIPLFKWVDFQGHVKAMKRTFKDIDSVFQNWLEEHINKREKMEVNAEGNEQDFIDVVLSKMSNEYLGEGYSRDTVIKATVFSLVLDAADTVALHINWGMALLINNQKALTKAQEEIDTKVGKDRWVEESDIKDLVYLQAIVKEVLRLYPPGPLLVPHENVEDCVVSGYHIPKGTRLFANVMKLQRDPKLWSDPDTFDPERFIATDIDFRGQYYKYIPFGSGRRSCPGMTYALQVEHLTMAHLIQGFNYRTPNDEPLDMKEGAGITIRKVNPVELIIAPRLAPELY


Legend:
[1] = target: T1, tobacco nicotine demethylase (D121-AA8); assay: Nicotine demethylase activity assay with yeast microsomal preparations; conditions: for nornicotine produced from the demethylation of nicotine (HPLC and LSC): microsomal samples from yeast cells expressing the p450
Procedure: After induction by galactose for 20 hours, yeast cells were collected by centrifugation and washed twice with TES-M buffer (50 mM Tris-HCl, pH 7.5, 1 mM EDTA, 0.6 M sorbitol, 10 mM 2-mercaptoethanol). The pellet was resuspended in extraction buffer (50 mM Tris-HCl, pH 7.5, 1 mM EDTA, 0.6 M sorbitol, 2 mM 2-mercaptoethanol, 1% bovine serum album, Protease Inhibitor Cocktail (Roche) at 1 tablet/50 ml). Cells were then broken with glass beads (0.5 mm in diameter, Sigma) and the cell extract was centrifuged for 20 min at 20,000×g to remove cellular debris. The supernatant was subjected to ultracentrifugation at 100,000×g for 60 min and the resultant pellet contained the microsomal fraction. The microsomal fraction was suspended in TEG-M buffer (50 mM Tris-HCl, pH 7.5, 1 mM EDTA, 20% glycerol and 1.5 mM 2-mercaptoethanol) at protein concentration of 1 mg/mL. Microsomal preparations were stored in a liquid nitrogen freezer until use.
Nicotine demethylase activity assays with yeast microsomal preparations were performed. […] Chlorpromazine (CPZ) and oxidized cytochrome c (cyt. C), both P450 inhibitors, were purchased from Sigma. […] NADPH was omitted for control incubation. The routine enzyme assay included microsomal proteins (around 1 mglrnl), 6 mM NADPH, and 55 μM ^14C labeled nicotine. […] C, when used, was 1 mM and 100 μM, respectively. The reaction was carried at 25° C. for 1 hour and was stopped with the addition of 300 μM methanol to each 25 μl reaction mixture. After centrifugation, 20 μl of the methanol extract was separated with a reverse-phase High Performance Liquid Chromatography (HPLC) system (Agilent) using an Inertsil ODS-3 3μ (150×4.6 mm) chromatography column from Varian. The isocratic mobile phase was the mixture of methanol and 50 mM potassium phosphate buffer, pH 6.25, with ratio of 60:40 (v/v) and the flow rate was 1 ml/min. The nornicotine peak, as determined by comparison with authentic non-labeled nornicotine, was collected and subjected to 2900 tri-carb Liquid ScintlDation Counter (LSC) (Perkin Elmer) for quantification. The activity of nicotine demethylase is calculated based on the production of ^14C labeled nornicotine over 1 hour incubation.

[2] = target: T2, nicotine demethylase activity in the transformed yeast cells; assay: In vivo enzyme assay: feeding transformed yeast culture with 14C labeled nicotine; type: cell-based; conditions: WAT11 yeast, galactose-induced culture, 55 μM 14C nicotine, 6 hours
Procedure: Single yeast colonies were used to inoculate 30 mL SGI media (5 g/L bactocasamino acids, 6.7 g/L yeast nitrogen base without amino acids, 20 g/L glucose, 40 mg/L DL-tryptophan) and grown at 30° C. for about 24 hours. An aliquot of this culture was diluted 1:50 into 1000 mL of YPGE media (10 g/L yeast extract, 20 g/L bacto peptone, 5 g/L glucose, 30 ml/L ethanol) and grown until glucose was completely consumed as indicated by the colorimetric change of a Diastix urinalysis reagent strip (Bayer, Elkhart, Ind.). Induction of cloned P450 was initiated by adding DL-galactose to a final concentration of 2%. The cultures were grown for an additional 20 hours before used for in vivo activity assay or for microsome preparation.
WAT11 yeast cells expressing pYeDP60-CYP71D20 (a p450 catalyzing the hydroxylation of 5-epi-aristolochene and 1-deoxycapsidiol in Nicotiana tabacum) were used as control for the p450 expression and enzyme activity assays.
The nicotine demethylase activity in the transformed yeast cells were assayed by feeding of yeast culture with DL-Nicotine (Pyrrolidine-2-^14C). ^14C labeled nicotine (54 mCi/mmol) was added to 75 μl of the galactose-induced culture for a final concentration of 55 μM. […] After spinning, 20 μl of the methanol extract was separated with an rp-HPLC and the nornicotine fraction was quantitated by LSC.

Molecule | effect on nicotine demethylase activity of D121-AA8 microsomes ([1]; Chlorpromazine 1 mM, incubated for 1 hour) | nornicotine produced from the demethylation of nicotine (HPLC and LSC) [1] | conversion of nicotine to nornicotine in yeast culture [2] | Demethylase activity, Microsomes + 100 μM cytochrome C ([1]; yeast microsomes with 100 μM oxidized cytochrome c, n = 3) | Demethylase activity, Microsomes + 1 mM chlorpromazine ([1]; yeast microsomes with 1 mM chlorpromazine, n = 3) | Demethylase activity, Microsomes ([1]; yeast microsomes, 6 mM NADPH, 55 μM 14C labeled nicotine, 25° C., 1 hour, n = 12)
CN(C)CCCN1c2ccccc2Sc2ccc(Cl)cc21 [Chlorpromazine, reference compound] | decreased significantly |  |  |  |  | 
D208-AD9: test p450 from a full-length tobacco clone, expressed in yeast (protein, listed as Nicotiana tabacum) MLSPIEAIVGLVTFTFLFFFLWTKKSQKPSKPLPPKIPGGWPVIGHLFHFNDDGDDRPLARKLGDLADKYGPVFTFRLGLPLVLVVSSYEAVKDCFSTNDAIFSNRPAFLYGDYLGYNNAMLFLANYGPYWRKNRKLVIQEVLSASRLEKFKHVRFARIQASMKNLYTRIDGNSSTINLTDWLEELNFGLIVKMIAGKNYESGKGDEQVERFKKAFKDFMILSMEFVLWDAFPIPLFKWVDFQGHVKAMKRTFKDIDSVFQNWLEEHINKREKMEVNAEGNEQDFIDVVLSKMSNEYLGEGYSRDTVIEATVFSLVLDAADTVALHINWGMALLINNQKALTKAQEEIDTKVCKDRWVEESDIKDLVYLQAIVKEVLRLYPPGPLLVPHENVEDCVVSGYHIPKGTRLFANVMKLQRDPKLWSDPDTFDPERFIATDIDFRGQYYKYIPFGPGRRSCPGMTYALQVEHLTMAHLIQGFNYRTPNDEPLDMKEGAGITIRKVNPVELIIAPRLAPELY |  | did not show any nornicotine conversion formation |  |  |  | 
Control (CYP71D20): a p450 catalyzing the hydroxylation of 5-epi-aristolochene and 1-deoxycapsidiol in Nicotiana tabacum, used as control (protein, UniProt Q94FM7 1-504, looked up) 5-epiaristolochene …: MQFFSLVSIFLFLSFLFLLRKWKNSNSQSKKLPPGPWKIPILGSMLHMIGGEPHHVLRDLAKKYGPLMHLQLGEISAVVVTSRDMAKEVLKTHDVVFASRPKIVAMDIICYNQSDIAFSPYGDHWRQMRKICVMELLNAKNVRSFSSIRRDEVVRLIDSIRSDSSSGELVNFTQRIIWFASSMTCRSAFGQVLKGQDIFAKKIREVIGLAEGFDVVDIFPTYKFLHVLSGMKRKLLNAHLKVDAIVEDVINEHKKNLAAGKSNGALGGEDLIDVLLRLMNDTSLQFPITNDNIKAVIVDMFAAGTETSSTTTVWAMAEMMKNPSVFTKAQAEVREAFRDKVSFDENDVEELKYLKLVIKETLRLHPPSPLLVPRECREDTDINGYTIPAKTKVMVNVWALGRDPKYWDDAESFKPERFEQCSVDFFGNNFEFLPFGGGRRICPGMSFGLANLYLPLAQLLYHFDWKLPTGIMPRDLDLTELSGITIARKGGLYLNATPYQPSRE |  | did not show any nornicotine conversion formation | did not convert nicotine to nornicotine | Not Detected | Not Detected | Not Detected

Source: patent US10294520B2, “Nicotiana nucleic acid molecules and uses thereof” (U.S. Smokeless Tobacco Company LLC, priority 2004, dated 2019)
